Our source for the self-cleavage values is the RNAGym collection of RNA variant scans (doi:10.7554/elife.80360).

Sequences and labels used below:
B1: CPEB3 Ribozyme (parent)
chain: GGGGGCCACAGCAGAAGCGUUCACGUCGCGGCCCCUGUCAGAUUCUGGUGAAUCUGCGAAUUCUGCUGU

Variants of B1 are the subject of the data set. Description: self-cleavage, relative activity (ratio to wild type); higher = more cleavage; co-transcriptional.
As for GGGGGCCACAGCAGAAGCGUUCACGUCGCGGCCCCUGUCAGAUUCUGGUGAAUCUGCGAAUUUUGCUAU [C63U G68A], the self-cleavage was found to be 0.967.

As for GGGGGCCACAGCAGAAGCGUUCACGUCGCGGCCCCUGUCAGAUUCUGGUGAAUCUGCGAAUUUUGCUGA [C63U U69A], the self-cleavage was determined as 1.02.

As to GGGGGCCACAGCAGAAGCGUUCACGUCGCGGCCCCUGUCAGAUUCUGGUGAAUCUGCGAAUUUUGCUGG [C63U U69G], the self-cleavage amounted to 1.04.

With GGGGGCCACAGCAGAAGCGUUCACGUCGCGGCCCCUGUCAGAUUCUGGUGAAUCUGCGAAUUCGGCUGA [U64G U69A], the self-cleavage amounted to 0.97.

With GGGGGCCACAGCAGAAGCGUUCACGUCGCGGCCCCUGUCAGAUUCUGGUGAAUCUGCGAAUUCGGCUGC [U64G U69C], the self-cleavage is 1.05.

Take GGGGGCCACAGCAGAAGCGUUCACGUCGCGGCCCCUGUCAGAUUCUGGUGAAUCUGCGAAUUCCGCAGU [U64C U67A]: the self-cleavage worked out at 0.864.

For GGGGGCCACAGCAGAAGCGUUCACGUCGCGGCCCCUGUCAGAUUCUGGUGAAUCUGCGAAUUCCGCCGU [U64C U67C], the self-cleavage was determined as 0.764.

With GGGGGCCACAGCAGAAGCGUUCACGUCGCGGCCCCUGUCAGAUUCUGGUGAAUCUGCGAAUUGUGCUGC [C63G U69C], the self-cleavage was 1.04.

As for GGGGGCCACAGCAGAAGCGUUCACGUCGCGGCCCCUGUCAGAUUCUGGUGAAUCUGCGAAUUGUGCUGA [C63G U69A], the self-cleavage is 0.864.

With GGGGGCCACAGCAGAAGCGUUCACGUCGCGGCCCCUGUCAGAUUCUGGUGAAUCUGCGAAUUUUGCCGU [C63U U67C], the self-cleavage amounted to 0.968.

GGGGGCCACAGCAGAAGCGUUCACGUCGCGGCCCCUGUCAGAUUCUGGUGAAUCUGCGAAUUUUGCGGU [C63U U67G]: the self-cleavage amounted to 0.985.

Consider GGGGGCCACAGCAGAAGCGUUCACGUCGCGGCCCCUGUCAGAUUCUGGUGAAUCUGCGAAUUCCGCUAU [U64C G68A], for which the self-cleavage was determined as 0.931.

As for GGGGGCCACAGCAGAAGCGUUCACGUCGCGGCCCCUGUCAGAUUCUGGUGAAUCUGCGAAUUCCGCUCU [U64C G68C], the self-cleavage worked out at 0.911.

For GGGGGCCACAGCAGAAGCGUUCACGUCGCGGCCCCUGUCAGAUUCUGGUGAAUCUGCGAAUUCCGGUGU [U64C C66G], the self-cleavage is 0.555.

In the case of GGGGGCCACAGCAGAAGCGUUCACGUCGCGGCCCCUGUCAGAUUCUGGUGAAUCUGCGAAUUCCGUUGU [U64C C66U], the self-cleavage was determined as 0.624.

As to GGGGGCCACAGCAGAAGCGUUCACGUCGCGGCCCCUGUCAGAUUCUGGUGAAUCUGCGAAUUCAACUGU [U64A G65A], the self-cleavage came to 0.701.

Consider GGGGGCCACAGCAGAAGCGUUCACGUCGCGGCCCCUGUCAGAUUCUGGUGAAUCUGCGAAUUCAGAUGU [U64A C66A], for which the self-cleavage is 0.502.

Turning to GGGGGCCACAGCAGAAGCGUUCACGUCGCGGCCCCUGUCAGAUUCUGGUGAAUCUGCGAAUUCAGUUGU [U64A C66U], the self-cleavage stood at 0.668.

Turning to GGGGGCCACAGCAGAAGCGUUCACGUCGCGGCCCCUGUCAGAUUCUGGUGAAUCUGCGAAUUCAGGUGU [U64A C66G], the self-cleavage amounted to 0.417.

For the variant GGGGGCCACAGCAGAAGCGUUCACGUCGCGGCCCCUGUCAGAUUCUGGUGAAUCUGCGAAUUUGGCUGU [C63U U64G], the self-cleavage worked out at 0.777.

For the variant GGGGGCCACAGCAGAAGCGUUCACGUCGCGGCCCCUGUCAGAUUCUGGUGAAUCUGCGAAUUCGGCUUU [U64G G68U], the self-cleavage was found to be 0.923.

As for GGGGGCCACAGCAGAAGCGUUCACGUCGCGGCCCCUGUCAGAUUCUGGUGAAUCUGCGAAUUCGGCUCU [U64G G68C], the self-cleavage is 0.799.

Take GGGGGCCACAGCAGAAGCGUUCACGUCGCGGCCCCUGUCAGAUUCUGGUGAAUCUGCGAAUUCGGCUAU [U64G G68A]: the self-cleavage was determined as 1.

Turning to GGGGGCCACAGCAGAAGCGUUCACGUCGCGGCCCCUGUCAGAUUCUGGUGAAUCUGCGAAUUCCGCUGC [U64C U69C], the self-cleavage came to 1.07.

In the case of GGGGGCCACAGCAGAAGCGUUCACGUCGCGGCCCCUGUCAGAUUCUGGUGAAUCUGCGAAUUCGGUUGU [U64G C66U], the self-cleavage was determined as 0.558.

In the case of GGGGGCCACAGCAGAAGCGUUCACGUCGCGGCCCCUGUCAGAUUCUGGUGAAUCUGCGAAUUCGGGUGU [U64G C66G], the self-cleavage turned out to be 0.442.

With GGGGGCCACAGCAGAAGCGUUCACGUCGCGGCCCCUGUCAGAUUCUGGUGAAUCUGCGAAUUGUGCCGU [C63G U67C], the self-cleavage was determined as 0.569.

Take GGGGGCCACAGCAGAAGCGUUCACGUCGCGGCCCCUGUCAGAUUCUGGUGAAUCUGCGAAUUGUGCGGU [C63G U67G]: the self-cleavage was found to be 0.752.

For the variant GGGGGCCACAGCAGAAGCGUUCACGUCGCGGCCCCUGUCAGAUUCUGGUGAAUCUGCGAAUUCAGCUUU [U64A G68U], the self-cleavage was 0.922.

Regarding GGGGGCCACAGCAGAAGCGUUCACGUCGCGGCCCCUGUCAGAUUCUGGUGAAUCUGCGAAUUCAGCUCU [U64A G68C], the self-cleavage came to 0.913.

Turning to GGGGGCCACAGCAGAAGCGUUCACGUCGCGGCCCCUGUCAGAUUCUGGUGAAUCUGCGAAUUCCACUGU [U64C G65A], the self-cleavage is 0.565.

Consider GGGGGCCACAGCAGAAGCGUUCACGUCGCGGCCCCUGUCAGAUUCUGGUGAAUCUGCGAAUUCCCCUGU [U64C G65C], for which the self-cleavage stood at 0.504.

GGGGGCCACAGCAGAAGCGUUCACGUCGCGGCCCCUGUCAGAUUCUGGUGAAUCUGCGAAUUCAGCGGU [U64A U67G]: the self-cleavage turned out to be 0.922.

For GGGGGCCACAGCAGAAGCGUUCACGUCGCGGCCCCUGUCAGAUUCUGGUGAAUCUGCGAAUUCAGCAGU [U64A U67A], the self-cleavage is 0.895.

Consider GGGGGCCACAGCAGAAGCGUUCACGUCGCGGCCCCUGUCAGAUUCUGGUGAAUCUGCGAAUUCGACUGU [U64G G65A], for which the self-cleavage came out at 0.578.

Regarding GGGGGCCACAGCAGAAGCGUUCACGUCGCGGCCCCUGUCAGAUUCUGGUGAAUCUGCGAAUUCGCCUGU [U64G G65C], the self-cleavage turned out to be 0.679.

Consider GGGGGCCACAGCAGAAGCGUUCACGUCGCGGCCCCUGUCAGAUUCUGGUGAAUCUGCGAAUUUUGCUGU [C63U], for which the self-cleavage came out at 0.991.

As to GGGGGCCACAGCAGAAGCGUUCACGUCGCGGCCCCUGUCAGAUUCUGGUGAAUCUGCGAAUUUUGAUGU [C63U C66A], the self-cleavage amounted to 0.473.

GGGGGCCACAGCAGAAGCGUUCACGUCGCGGCCCCUGUCAGAUUCUGGUGAAUCUGCGAAUUUUGUUGU [C63U C66U]: the self-cleavage was 0.863.
